This is an account of results in patent publication US20110091994A1, “Methods for Screening Compounds for Treating and/or Preventing an Hepatitis C Virus Infection” (priority 2008, published 2011).

B1: ITGAL (protein, UniProt P20701 26-1170, looked up)
Integrin alpha-L: YNLDVRGARSFSPPRAGRHFGYRVLQVGNGVIVGAPGEGNSTGSLYQCQSGTGHCLPVTLRGSNYTSKYLGMTLATDPTDGSILACDPGLSRTCDQNTYLSGLCYLFRQNLQGPMLQGRPGFQECIKGNVDLVFLFDGSMSLQPDEFQKILDFMKDVMKKLSNTSYQFAAVQFSTSYKTEFDFSDYVKRKDPDALLKHVKHMLLLTNTFGAINYVATEVFREELGARPDATKVLIIITDGEATDSGNIDAAKDIIRYIIGIGKHFQTKESQETLHKFASKPASEFVKILDTFEKLKDLFTELQKKIYVIEGTSKQDLTSFNMELSSSGISADLSRGHAVVGAVGAKDWAGGFLDLKADLQDDTFIGNEPLTPEVRAGYLGYTVTWLPSRQKTSLLASGAPRYQHMGRVLLFQEPQGGGHWSQVQTIHGTQIGSYFGGELCGVDVDQDGETELLLIGAPLFYGEQRGGRVFIYQRRQLGFEEVSELQGDPGYPLGRFGEAITALTDINGDGLVDVAVGAPLEEQGAVYIFNGRHGGLSPQPSQRIEGTQVLSGIQWFGRSIHGVKDLEGDGLADVAVGAESQMIVLSSRPVVDMVTLMSFSPAEIPVHEVECSYSTSNKMKEGVNITICFQIKSLIPQFQGRLVANLTYTLQLDGHRTRRRGLFPGGRHELRRNIAVTTSMSCTDFSFHFPVCVQDLISPINVSLNFSLWEEEGTPRDQRAQGKDIPPILRPSLHSETWEIPFEKNCGEDKKCEANLRVSFSPARSRALRLTAFASLSVELSLSNLEEDAYWVQLDLHFPPGLSFRKVEMLKPHSQIPVSCEELPEESRLLSRALSCNVSSPIFKAGHSVALQMMFNTLVNSSWGDSVELHANVTCNNEDSDLLEDNSATTIIPILYPINILIQDQEDSTLYVSFTPKGPKIHQVKHMYQVRIQPSIHDHNIPTLEAVVGVPQPPSEGPITHQWSVQMEPPVPCHYEDLERLPDAAEPCLPGALFRCPVVFRQEILVQVIGTLELVGEIEASSMFSLCSSLSISFNSSKHFHLYGSNASLAQVVMKVDVVYEKQMLYLYVLSGIGGLLLLLLIFIVLYKVGFFKRNLKEKMEAGRGVPNGIPAEDSEQLASGQEAGDPGCLKPLHEKDSESGGGKD
B2: GPS2 (protein, UniProt Q13227 1-327, looked up)
G protein pathway suppressor 2: MPALLERPKLSNAMARALHRHIMMERERKRQEEEEVDKMMEQKMKEEQERRKKKEMEERMSLEETKEQILKLEEKLLALQEEKHQLFLQLKKVLHEEEKRRRKEQSDLTTLTSAAYQQSLTVHTGTHLLSMQGSPGGHNRPGTLMAADRAKQMFGPQVLTTRHYVGSAAAFAGTPEHGQFQGSPGGAYGTAQPPPHYGPTQPAYSPSQQLRAPSAFPAVQYLSQPQPQPYAVHGHFQPTQTGFLQPGGALSLQKQMEHANQQTGFSDSSSLRPMHPQALHPAPGLLASPQLPVQMQPAGKSGFAATSQPGPRLPFIQHSQNPRFYHK
B3: SORBS2 (protein, UniProt O94875 1-1100, looked up)
Sorbin and SH3 …: MSYYQRPFSPSAYSLPASLNSSIVMQHGTSLDSTDTYPQHAQSLDGTTSSSIPLYRSSEEEKRVTVIKAPHYPGIGPVDESGIPTAIRTTVDRPKDWYKTMFKQIHMVHKPDDDTDMYNTPYTYNAGLYNPPYSAQSHPAAKTQTYRPLSKSHSDNSPNAFKDASSPVPPPHVPPPVPPLRPRDRSSTEKHDWDPPDRKVDTRKFRSEPRSIFEYEPGKSSILQHERPASLYQSSIDRSLERPMSSASMASDFRKRRKSEPAVGPPRGLGDQSASRTSPGRVDLPGSSTTLTKSFTSSSPSSPSRAKGGDDSKICPSLCSYSGLNGNPSSELDYCSTYRQHLDVPRDSPRAISFKNGWQMARQNAEIWSSTEETVSPKIKSRSCDDLLNDDCDSFPDPKVKSESMGSLLCEEDSKESCPMAWGSPYVPEVRSNGRSRIRHRSARNAPGFLKMYKKMHRINRKDLMNSEVICSVKSRILQYESEQQHKDLLRAWSQCSTEEVPRDMVPTRISEFEKLIQKSKSMPNLGDDMLSPVTLEPPQNGLCPKRRFSIEYLLEEENQSGPPARGRRGCQSNALVPIHIEVTSDEQPRAHVEFSDSDQDGVVSDHSDYIHLEGSSFCSESDFDHFSFTSSESFYGSSHHHHHHHHHHHRHLISSCKGRCPASYTRFTTMLKHERARHENTEEPRRQEMDPGLSKLAFLVSPVPFRRKKNSAPKKQTEKAKCKASVFEALDSALKDICDQIKAEKKRGSLPDNSILHRLISELLPDVPERNSSLRALRRSPLHQPLHPLPPDGAIHCPPYQNDCGRMPRSASFQDVDTANSSCHHQDRGGALQDRESPRSYSSTLTDMGRSAPRERRGTPEKEKLPAKAVYDFKAQTSKELSFKKGDTVYILRKIDQNWYEGEHHGRVGIFPISYVEKLTPPEKAQPARPPPPAQPGEIGEAIAKYNFNADTNVELSLRKGDRVILLKRVDQNWYEGKIPGTNRQGIFPVSYVEVVKKNTKGAEDYPDPPIPHSYSSDRIHSLSSNKPQRPVFTHENIQGGGEPFQALYNYTPRNEDELELRESDVIDVMEKCDDGWFVGTSRRTKFFGTFPGNYVKRL
B4: MOBK1B (protein, UniProt Q7L9L4 2-216, looked up)
MOB kinase activator 1B: SFLFGSRSSKTFKPKKNIPEGSHQYELLKHAEATLGSGNLRMAVMLPEGEDLNEWVAVNTVDFFNQINMLYGTITDFCTEESCPVMSAGPKYEYHWADGTNIKKPIKCSAPKYIDYLMTWVQDQLDDETLFPSKIGVPFPKNFMSVAKTILKRLFRVYAHIYHQHFDPVIQLQEEAHLNTSFKHFIFFVQEFNLIDRRELAPLQELIEKLTSKDR
B5: GOLGA2 (protein, UniProt Q08379 1-1002, looked up)
Golgin subfamily A member 2: MWPQPRLPPRPAMSEETRQSKLAAAKKKLREYQQRNSPGVPTGAKKKKKIKNGSNPETTTSGGCHSPEDTPKDNAATLQPSDDTVLPGGVPSPGASLTSMAASQNHDADNVPNLMDETKTFSSTESLRQLSQQLNGLVCESATCVNGEGPASSANLKDLESRYQQLAVALDSSYVTNKQLNITIEKLKQQNQEITDQLEEEKKECHQKQGALREQLQVHIQTIGILVSEKAELQTALAHTQHAARQKEGESEDLASRLQYSRRRVGELERALSAVSTQQKKADRYNKELTKERDALRLELYKNTQSNEDLKQEKSELEEKLRVLVTEKAGMQLNLEELQKKLEMTELLLQQFSSRCEAPDANQQLQQAMEERAQLEAHLGQVMESVRQLQMERDKYAENLKGESAMWRQRMQQMSEQVHTLREEKECSMSRVQELETSLAELRNQMAEPPPPEPPAGPSEVEQQLQAEAEHLRKELEGLAGQLQAQVQDNEGLSRLNREQEERLLELERAAELWGEQAEARRQILETMQNDRTTISRALSQNRELKEQLAELQSGFVKLTNENMEITSALQSEQHVKRELGKKLGELQEKLSELKETVELKSQEAQSLQQQRDQYLGHLQQYVAAYQQLTSEKEVLHNQLLLQTQLVDQLQQQEAQGKAVAEMARQELQETQERLEAATQQNQQLRAQLSLMAHPGEGDGLDREEEEDEEEEEEEAVAVPQPMPSIPEDLESREAMVAFFNSAVASAEEEQARLRGQLKEQRVRCRRLAHLLASAQKEPEAAAPAPGTGGDSVCGETHRALQGAMEKLQSRFMELMQEKADLKERVEELEHRCIQLSGETDTIGEYIALYQSQRAVLKERHREKEEYISRLAQDKEEMKVKLLELQELVLRLVGDRNEWHGRFLAAAQNPADEPTSGAPAPQELGAANQQGDLCEVSLAGSVEPAQGEAREGSPRDNPTAQQIMQLLREMQNPRERPGLGSNPCIPFFYRADENDEVKITVI
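Throughout, for IMAP Y2H IMAP2 (number of IST): yeast two-hybrid screens using HCV genotype 1b proteins fused to Gal4-DB as baits against prey cDNA libraries from human spleen and foetal brain, IMAP1 via transformation and IMAP2 via mating.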
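Throughout, for Interaction with viral protein: yeast two-hybrid screens using HCV genotype 1b proteins fused to Gal4-DB as baits against prey cDNA libraries from human spleen and foetal brain, IMAP1 via transformation and IMAP2 via mating.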

T1 sequence (Q9WMX2 1973-2419): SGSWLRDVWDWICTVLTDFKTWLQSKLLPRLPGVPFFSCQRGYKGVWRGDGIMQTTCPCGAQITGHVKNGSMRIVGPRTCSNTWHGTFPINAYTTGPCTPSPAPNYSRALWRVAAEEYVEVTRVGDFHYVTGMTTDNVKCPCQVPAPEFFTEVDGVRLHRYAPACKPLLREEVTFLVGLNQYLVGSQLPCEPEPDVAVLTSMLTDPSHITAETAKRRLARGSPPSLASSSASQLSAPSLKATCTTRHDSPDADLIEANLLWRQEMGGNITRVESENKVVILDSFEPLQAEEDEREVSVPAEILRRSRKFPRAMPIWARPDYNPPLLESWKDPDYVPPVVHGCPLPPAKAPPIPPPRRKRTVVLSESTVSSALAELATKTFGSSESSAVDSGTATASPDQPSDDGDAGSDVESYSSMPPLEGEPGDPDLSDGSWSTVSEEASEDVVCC

One assay concerns the target T1, GST-tagged viral proteins (Hepatitis C virus genotype 1b, UniProt Q9WMX2).
T1 construct: expressed in transfected cells; host or cells: HEK-293T
As to the kind of experiment: Validation by co-affinity purification (CoAP). Also on record: key: +: IMAP validation; −: not validated; NA: non assayable due to default of protein expression or to cellular protein directly interacting with GST. As to conditions: interaction with HCV protein NS5A. The class given is binding, HCV genotype 1b, isolate con1. The source says: C. Validation of Y2H interactions by co-affinity purification assay. Nine co-AP positive assays are shown, representing: NS5A-SORBS2 (1), NS3-CALCOCO2 (2), NS5A-BIN1 (3), NS5A-MOBK1B (4), NS5A-EFEMP1 (5), NS3-PSMB9 and NS5A-PSMB9 (6), NS5A-PPPIRI3L (7), NS3-RASAL2 (8). After pull-down with GST tagged viral baits (+) or with negative control GST alone (−), cellular preys are identified with anti-Flag antibody. Anti-GST antibody identifies either GST alone or GST-tagged viral baits. Expression of cellular preys in cell lysate is controlled by anti-Flag (bottom panel). […]
A random pool of 59 IMAP Y2H interactions was chosen for CoAP assays. Cellular ORFs (interacting domains found in Y2H screens) were cloned by recombinational cloning from a pool of human cDNA library or the MGC cDNA plasmids using KOD polymerase (Toyobo) into pDONR207 (Invitrogen). After validation by sequencing, these ORFs were transferred to pCi-neo-3xFLAG gateway-converted, and HCV ORFs were transferred into pDEST27 (GST fusion in N-term). HEK-293T cells were then co-transfected (JetPei, Polyplus) by each pair of plasmid encoding interacting proteins. Controls are GST alone against 3xFLAG-tagged preys. Two days after transfection, cells were harvested and lysed (0.5% NP-40, 20 mM Tris-HCl (pH 8.0), 180 mM NaCl, 1 mM EDTA, and complete protease inhibitor cocktail). Cell lysates were cleared by centrifugation for 20 min at 13,000 rpm at 4° C. and soluble protein complexes were purified using Glutathione Sepharose 4B beads (GE Healthcare). Beads were then washed extensively four times with lysis buffer and proteins were separated on SDS-PAGE and transferred to nitrocellulose membrane. GST-tagged viral proteins and 3xFLAG-tagged cellular proteins were detected using standard immunoblotting techniques using anti-GST (Covance) and anti-FLAG M2 (Sigma) monoclonal antibodies (21).
Consider B1, for which the CoAP result was “+”.
With B2, the CoAP result is listed as “+”.
B3: the CoAP entry is “+”.
The same measure, in the same setting: next, B4: “+”.
In the case of B5, the CoAP entry is on record as “+”.

The next assay deals with T2, HCV ORFs (Gal4-DB fusions) (Hepatitis C virus genotype 1b, UniProt Q9WMX2).
T2 construct: expressed in transfected cells; host or cells: Saccharomyces cerevisiae MAV203 (IMAP1) / AH109 (IMAP2)
Test: not given
The class given is binding, HCV genotype 1b, isolate con1. As to conditions: HCV protein NS5A as bait; human protein as prey.
Turning to B1, the “IMAP Y2H IMAP2 (number of IST)” value is reported as 1.
On to B2, for which the “IMAP Y2H IMAP2 (number of IST)” value is recorded as 1.
Take B3: the “IMAP Y2H IMAP2 (number of IST)” value came out at 8.
For the molecule B4, the “IMAP Y2H IMAP2 (number of IST)” value is on record as 5.
For the molecule B5, the “IMAP Y2H IMAP2 (number of IST)” value is recorded as 15.

The same assay, now with this note: HCV protein NS5B as bait; human protein as prey.
For the molecule B4, the “IMAP Y2H IMAP2 (number of IST)” value was determined as 3.

Another assay deals with HCV ORFs (Gal4-DB fusions).
Test: not given
The format is binding, HCV genotype 1b, isolate con1. The conditions noted are these: human protein listed by gene symbol; the value names the HCV protein it interacts with.
Turning to B1, the “Interaction with viral protein” value was “NS5A”.
In the case of B2, the “Interaction with viral protein” value is “NS5A”.
For the molecule B3, the “Interaction with viral protein” value was “NS5A”.
Still for that read-out and setting: the result for B4 reads “NS5A”; that for B5, “NS5A”.
